Assay results as given in PMC11931385, “Structural and functional analysis of cancer-associated missense variants in the retinoblastoma protein pocket domain” (The Journal of Biological Chemistry, 2025).
No end group written: not given here. TMR = tetramethyl rhodamine dye

T1: Rb^P A490S (human, UniProt P06400 380-788, A490S)
T1 construct: also called variant 15
T1 sequence (looked up): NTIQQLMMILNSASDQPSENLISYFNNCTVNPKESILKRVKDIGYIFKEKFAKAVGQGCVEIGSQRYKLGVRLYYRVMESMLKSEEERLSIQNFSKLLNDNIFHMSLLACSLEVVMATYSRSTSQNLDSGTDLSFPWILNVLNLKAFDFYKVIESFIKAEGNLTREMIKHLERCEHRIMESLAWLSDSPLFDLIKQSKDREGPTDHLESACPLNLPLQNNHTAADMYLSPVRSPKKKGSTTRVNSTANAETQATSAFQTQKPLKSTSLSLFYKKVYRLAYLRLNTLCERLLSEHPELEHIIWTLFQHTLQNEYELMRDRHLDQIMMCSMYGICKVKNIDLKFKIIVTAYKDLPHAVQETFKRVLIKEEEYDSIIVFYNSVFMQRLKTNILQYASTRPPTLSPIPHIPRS

T2: Rb^P A490V (human, UniProt P06400 380-788, A490V)
T2 construct: also called variant 17
T2 sequence (looked up): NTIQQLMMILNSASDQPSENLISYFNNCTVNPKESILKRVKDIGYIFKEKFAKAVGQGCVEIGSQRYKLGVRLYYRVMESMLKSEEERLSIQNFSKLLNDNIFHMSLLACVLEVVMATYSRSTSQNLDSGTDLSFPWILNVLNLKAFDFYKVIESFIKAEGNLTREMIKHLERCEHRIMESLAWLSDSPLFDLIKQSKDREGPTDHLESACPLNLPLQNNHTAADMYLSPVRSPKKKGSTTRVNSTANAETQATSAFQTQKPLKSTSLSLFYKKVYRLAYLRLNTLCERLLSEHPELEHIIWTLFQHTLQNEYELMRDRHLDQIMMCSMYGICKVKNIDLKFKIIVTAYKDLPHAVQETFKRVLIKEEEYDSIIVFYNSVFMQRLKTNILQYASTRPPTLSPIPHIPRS

T3: Rb^P E554K (human, UniProt P06400 380-788, E554K)
T3 construct: also called variant 28
T3 sequence (looked up): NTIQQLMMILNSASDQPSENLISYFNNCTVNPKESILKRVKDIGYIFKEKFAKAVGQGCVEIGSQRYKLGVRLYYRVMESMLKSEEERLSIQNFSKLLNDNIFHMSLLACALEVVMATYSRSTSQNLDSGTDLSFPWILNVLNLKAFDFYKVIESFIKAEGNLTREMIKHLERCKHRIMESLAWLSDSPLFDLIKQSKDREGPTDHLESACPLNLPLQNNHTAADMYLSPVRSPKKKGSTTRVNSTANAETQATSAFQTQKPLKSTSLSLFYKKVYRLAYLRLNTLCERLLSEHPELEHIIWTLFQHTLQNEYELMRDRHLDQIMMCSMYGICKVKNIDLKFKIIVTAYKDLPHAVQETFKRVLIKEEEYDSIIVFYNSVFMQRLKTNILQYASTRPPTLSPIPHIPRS

T4: Rb^P S671F (human, UniProt P06400 380-788, S671F)
T4 construct: also called variant 53
T4 sequence (looked up): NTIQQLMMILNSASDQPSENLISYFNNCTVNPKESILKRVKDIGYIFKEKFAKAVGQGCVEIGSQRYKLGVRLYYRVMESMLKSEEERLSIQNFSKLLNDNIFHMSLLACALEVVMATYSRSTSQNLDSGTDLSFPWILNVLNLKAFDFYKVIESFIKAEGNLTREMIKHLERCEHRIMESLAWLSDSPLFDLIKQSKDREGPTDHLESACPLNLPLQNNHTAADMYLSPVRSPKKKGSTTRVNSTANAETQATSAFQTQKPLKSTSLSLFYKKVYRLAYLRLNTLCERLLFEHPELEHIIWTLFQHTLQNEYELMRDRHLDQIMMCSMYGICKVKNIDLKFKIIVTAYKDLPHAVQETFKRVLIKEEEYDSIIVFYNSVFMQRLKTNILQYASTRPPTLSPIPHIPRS

T5: Rb^P R741C (human, UniProt P06400 380-788, R741C)
T5 construct: also called variant 68
T5 sequence (looked up): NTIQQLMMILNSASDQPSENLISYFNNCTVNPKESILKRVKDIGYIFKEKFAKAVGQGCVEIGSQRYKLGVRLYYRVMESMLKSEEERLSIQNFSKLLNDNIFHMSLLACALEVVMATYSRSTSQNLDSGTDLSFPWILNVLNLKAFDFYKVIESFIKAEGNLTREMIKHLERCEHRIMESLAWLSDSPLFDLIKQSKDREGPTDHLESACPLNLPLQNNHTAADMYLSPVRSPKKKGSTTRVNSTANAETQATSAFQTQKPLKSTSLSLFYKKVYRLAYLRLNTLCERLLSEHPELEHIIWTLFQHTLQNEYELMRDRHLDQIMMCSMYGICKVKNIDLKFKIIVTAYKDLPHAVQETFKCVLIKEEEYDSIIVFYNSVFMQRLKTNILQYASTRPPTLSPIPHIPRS


Legend:
Test in all cases: fluorescence polarisation; 25 °C; unlabeled Rb^P titrated against 1.5 nM TMR-E2F1^TD or 7.5 nM TMR-E7^LxCxE; 25 mM Tris pH 8.0, 200 mM NaCl, 1 mM DTT, 0.1% Tween-20; 2 min incubation; quadratic fit; apparent Kd for the variants, Kd for WT
Settings in all cases: both partners purified
Rb^P A490S = molecular target: T1, Rb^P A490S
Rb^P A490V = molecular target: T2, Rb^P A490V
Rb^P E554K = molecular target: T3, Rb^P E554K
Rb^P S671F = molecular target: T4, Rb^P S671F
Rb^P R741C = molecular target: T5, Rb^P R741C

Row | Binder | Kd (Rb^P A490S) | Kd (Rb^P A490V) | Kd (Rb^P E554K) | Kd (Rb^P S671F) | Kd (Rb^P R741C)
1 | {TMR}-GEGIRDLFDCDFGDLTPLD (also called E2F^TD; source: synthetic peptide, bought: GenScript) [TMR-E2F1^TD, peptide of the E2F1 transactivation domain] | 17 nM | 48 nM | 1170 nM | 24 nM | 23 nM
2 | DLYCYEQLN (also: TMR label, position not given here, source: synthetic peptide, bought: GenScript) [TMR-E7^LxCxE, LxCxE peptide of the E7 oncoprotein from HPV] | 7 nM | 11 nM | 12 nM | 9 nM | 14 nM
